The supplement of paper PMC9112550, “Optimization of the antimicrobial peptide Bac7 by deep mutational scanning” (BMC Biology, 2022)

tested on: Escherichia coli TOP10; test: shrunken log2 fold change of peptide-encoding DNA abundance (4.5 h post-induction vs induction); higher = less antimicrobial activity (less host growth inhibition); details: time post-induction: 4.5 h; library: site-saturation at positions 5, 18, 19, 20
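Also: peptides expressed intracellularly from a pBAD plasmid library in pooled LB shake-flask culture, induced with 0.3% L-arabinose, DNA abundance read by NGS, three biological replicates, DESeq2 with apeglm shrinkage.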

Sequence	shrunken log2 fold change
RRIRFRPPRLPRPRPRPTKYPRP	-0.635
RRIRIRPPRLPRPRPRPQGFPRP	-0.129
RRIRLRPPRLPRPRPRPRKFPRP	-0.0381
RRIRNRPPRLPRPRPRPCCAPRP	-0.0874
RRIRSRPPRLPRPRPRPRIAPRP	0.174
RRIRIRPPRLPRPRPRPRHTPRP	-0.34
RRIRKRPPRLPRPRPRPQQQPRP	-0.0131
RRIRHRPPRLPRPRPRPFYGPRP	-0.0135
RRIRLRPPRLPRPRPRPFDGPRP	-0.00197
RRIRMRPPRLPRPRPRPNWKPRP	-0.0351
RRIRWRPPRLPRPRPRPFIVPRP	-0.325
RRIRTRPPRLPRPRPRPIGAPRP	0.089
RRIRERPPRLPRPRPRPGGLPRP	-0.00977
RRIRKRPPRLPRPRPRPESRPRP	0.625
RRIRARPPRLPRPRPRPYNNPRP	-0.817
RRIRERPPRLPRPRPRPIFVPRP	-0.295
RRIRLRPPRLPRPRPRPYDLPRP	-0.0724
RRIRLRPPRLPRPRPRPFRCPRP	-0.181
RRIRHRPPRLPRPRPRPMHWPRP	-0.134
RRIRLRPPRLPRPRPRPSFTPRP	-0.672
RRIRERPPRLPRPRPRPCFRPRP	-0.511
RRIRARPPRLPRPRPRPIKDPRP	0.0786
RRIRRRPPRLPRPRPRPTQWPRP	0.183
RRIRGRPPRLPRPRPRPPGRPRP	1.35
RRIRARPPRLPRPRPRPFLYPRP	-0.0961

Sequence	shrunken log2 fold change
RRIRCRPPRLPRPRPRPYIHPRP	-1.11
RRIRMRPPRLPRPRPRPAIDPRP	0.718
RRIRPRPPRLPRPRPRPDAGPRP	0.442
RRIRCRPPRLPRPRPRPCISPRP	-0.582
RRIRRRPPRLPRPRPRPRGYPRP	0.398
RRIRHRPPRLPRPRPRPVSCPRP	0.011
RRIRERPPRLPRPRPRPSSGPRP	-0.648
RRIRYRPPRLPRPRPRPSARPRP	-0.137
RRIRLRPPRLPRPRPRPQPKPRP	0.172
RRIRKRPPRLPRPRPRPHDKPRP	0.176
RRIRKRPPRLPRPRPRPSKIPRP	0.154
RRIRHRPPRLPRPRPRPVVAPRP	-0.233
RRIRYRPPRLPRPRPRPCIFPRP	-0.559
RRIRERPPRLPRPRPRPELLPRP	-0.000642
RRIRNRPPRLPRPRPRPCAWPRP	-0.147
RRIRARPPRLPRPRPRPLGAPRP	0.726
RRIRGRPPRLPRPRPRPWAHPRP	0.0122
RRIRGRPPRLPRPRPRPYYFPRP	0.0211
RRIRGRPPRLPRPRPRPFDHPRP	-0.0514
RRIRDRPPRLPRPRPRPVEIPRP	-0.0399
RRIRSRPPRLPRPRPRPGCNPRP	0.0419
RRIRNRPPRLPRPRPRPKLEPRP	0.0965
RRIRLRPPRLPRPRPRPWAAPRP	0.15
RRIRGRPPRLPRPRPRPIAKPRP	0.245
RRIRDRPPRLPRPRPRPLAHPRP	0.151

Sequence	shrunken log2 fold change
RRIRARPPRLPRPRPRPRRNPRP	0.308
RRIRRRPPRLPRPRPRPFFQPRP	-0.111
RRIRLRPPRLPRPRPRPHDDPRP	-0.115
RRIRFRPPRLPRPRPRPCKKPRP	-0.000348
RRIRRRPPRLPRPRPRPLMRPRP	1.07
RRIRDRPPRLPRPRPRPTSPPRP	-0.267
RRIRVRPPRLPRPRPRPWYPPRP	-0.884
RRIRGRPPRLPRPRPRPVAHPRP	0.548
RRIRWRPPRLPRPRPRPKASPRP	-0.00939
RRIRARPPRLPRPRPRPSFEPRP	0.327
RRIRYRPPRLPRPRPRPRWKPRP	-0.295
RRIRPRPPRLPRPRPRPVDFPRP	0.0795
RRIRCRPPRLPRPRPRPSTTPRP	-0.257
RRIRCRPPRLPRPRPRPLQFPRP	-0.0752
RRIRVRPPRLPRPRPRPQHAPRP	-0.154
RRIRQRPPRLPRPRPRPKELPRP	-0.534
RRIRARPPRLPRPRPRPHAHPRP	0.254
RRIRPRPPRLPRPRPRPNIWPRP	-0.0307
RRIRWRPPRLPRPRPRPWNEPRP	0.0237
RRIRYRPPRLPRPRPRPDFVPRP	-0.205
RRIRSRPPRLPRPRPRPEVDPRP	0.51
RRIRMRPPRLPRPRPRPYATPRP	-0.0602
RRIRCRPPRLPRPRPRPQAEPRP	0.215
RRIRMRPPRLPRPRPRPMPKPRP	0.0834
RRIRARPPRLPRPRPRPLMMPRP	0.205

Sequence	shrunken log2 fold change
RRIRVRPPRLPRPRPRPILEPRP	0.13
RRIRVRPPRLPRPRPRPYVMPRP	-0.619
RRIRVRPPRLPRPRPRPMPDPRP	0.00211
RRIRIRPPRLPRPRPRPLMIPRP	-0.807
RRIRKRPPRLPRPRPRPVKWPRP	0.122
RRIRWRPPRLPRPRPRPCESPRP	-0.0177
RRIRDRPPRLPRPRPRPDFQPRP	0.189
RRIRQRPPRLPRPRPRPLHIPRP	-0.423
RRIRRRPPRLPRPRPRPWMYPRP	-0.305
RRIRERPPRLPRPRPRPVMHPRP	-0.0979
RRIRYRPPRLPRPRPRPIVPPRP	0.0202
RRIRTRPPRLPRPRPRPGLWPRP	0.521
RRIRARPPRLPRPRPRPCHIPRP	0.00153
RRIRSRPPRLPRPRPRPQEDPRP	-0.244
RRIRCRPPRLPRPRPRPFECPRP	-0.365
RRIRERPPRLPRPRPRPVFDPRP	-0.461
RRIRVRPPRLPRPRPRPTEHPRP	-0.0827
RRIRHRPPRLPRPRPRPQHVPRP	-0.048
RRIRERPPRLPRPRPRPTEAPRP	0.0834
RRIRLRPPRLPRPRPRPGFMPRP	-0.382
RRIRVRPPRLPRPRPRPEKDPRP	0.188
RRIRWRPPRLPRPRPRPDVQPRP	0.0431
RRIRTRPPRLPRPRPRPWSPPRP	-0.37
RRIRERPPRLPRPRPRPIIHPRP	-0.413
RRIRERPPRLPRPRPRPPGKPRP	0.28

Sequence	shrunken log2 fold change
RRIRVRPPRLPRPRPRPQAVPRP	-0.0188
RRIRSRPPRLPRPRPRPWTSPRP	0.0101
RRIRVRPPRLPRPRPRPNCDPRP	-0.356
RRIRGRPPRLPRPRPRPFIVPRP	-0.00433
RRIRERPPRLPRPRPRPSSYPRP	-1.12
RRIRKRPPRLPRPRPRPECYPRP	-0.0555
RRIRQRPPRLPRPRPRPSFCPRP	0.462
RRIRRRPPRLPRPRPRPGKFPRP	0.284
RRIRARPPRLPRPRPRPGVTPRP	0.611
RRIRQRPPRLPRPRPRPENYPRP	0.309
RRIRGRPPRLPRPRPRPSYSPRP	-0.0047
RRIRMRPPRLPRPRPRPNTHPRP	0.136
RRIRRRPPRLPRPRPRPPPLPRP	0.963
RRIRKRPPRLPRPRPRPISSPRP	-0.0713
RRIRTRPPRLPRPRPRPKSIPRP	-0.194
RRIRTRPPRLPRPRPRPRICPRP	-0.201
RRIRVRPPRLPRPRPRPAYIPRP	-0.738
RRIRPRPPRLPRPRPRPVSFPRP	0.0766
RRIRRRPPRLPRPRPRPGPPPRP	1.93
RRIRTRPPRLPRPRPRPMYCPRP	-0.873
RRIRLRPPRLPRPRPRPELGPRP	0.0397
RRIRPRPPRLPRPRPRPDFLPRP	-0.235
RRIRSRPPRLPRPRPRPKTVPRP	0.0369
RRIRQRPPRLPRPRPRPQFRPRP	-0.0194
RRIRVRPPRLPRPRPRPPQDPRP	0.27
